Measurements as given in US9879306B2, “Luciferase biosensors for cAMP” (PROMEGA CORPORATION, priority 2008, dated 2018).

Experiments:
[1] = tested on: catalytic subunit of protein kinase A; details: reversed by phosphatase; cited from earlier work
[2] = tested on: cyclic AMP dependent protein kinase catalytic subunit; details: serine at position 543; alkaline phosphatase restored activity; cited from earlier work
[3] = biological target: T1, endogenous beta2-adrenergic receptor (Homo sapiens, UniProt P07550); assay: Stimulatory response to isoproterenol in HEK293 cells (Gs pathway); assay type: cell-based; details: 10 μM isoproterenol, relative to biosensor with GSSGGSGGSGGG linker
T1 construct: agonist of the endogenous beta2-adrenergic receptor; endogenous in cells; host or cells: HEK293
Text: (§1) A mutant cAMP biosensor (termed L9; SEQ ID NO: 104; SEQ ID NO: 105) having a mutant RIIβB binding site (substitutions E284A and V316I) and a modified linker sequence (GSIAGCGDAGEG, SEQ ID NO: 57; SEQ ID NO: 128) was screened for increased light output and increased fold response when expressed in mammalian cells (primary sequence Met-(Photinus pyralis luciferase residues 359-544)-(GSIAGCGDAGEG (SEQ ID NO: 57; SEQ ID NO: SEQ ID NO: 128))-(RIIβB E284A, V316I)-(Photinus pyralis luciferase residues 4-355)-Val). For a stimulatory response, transient expression in HEK293 cells was followed by treatment with 10 μM isoproterenol (agonist of the endogenous beta2-adrenergic receptor). For an inhibitory response, transient expression in HEK293 cells that stably express the dopamine D2 receptor was followed by simultaneous treatment with dopamine in the presence or absence of forskolin

dopamine D2 receptor = biological target: T2, dopamine D2 receptor (Homo sapiens, UniProt P14416); assay: Inhibitory response to dopamine with or without forskolin in HEK293 cells stably expressing D2 (Gi pathway); assay type: cell-based; details: relative to biosensor with GSSGGSGGSGGG linker
T2 construct: expressed in transfected cells
T2 sequence (P14416 whole entry, species assumed): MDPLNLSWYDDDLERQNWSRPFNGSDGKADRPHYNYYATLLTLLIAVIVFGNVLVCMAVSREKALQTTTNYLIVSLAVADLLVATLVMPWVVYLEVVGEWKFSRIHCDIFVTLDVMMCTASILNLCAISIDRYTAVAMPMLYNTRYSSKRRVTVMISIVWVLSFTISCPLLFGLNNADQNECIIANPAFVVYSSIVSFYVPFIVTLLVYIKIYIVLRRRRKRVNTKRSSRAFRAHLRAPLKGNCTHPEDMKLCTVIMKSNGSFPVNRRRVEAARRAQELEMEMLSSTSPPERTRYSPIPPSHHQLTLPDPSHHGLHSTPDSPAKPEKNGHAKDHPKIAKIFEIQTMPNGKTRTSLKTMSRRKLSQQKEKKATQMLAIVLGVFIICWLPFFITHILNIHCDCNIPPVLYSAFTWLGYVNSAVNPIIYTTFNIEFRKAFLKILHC
Text: as §1

GPR41 [4] = biological target: T3, GPR41 (Homo sapiens, UniProt O14843); assay: Sodium proprionate CRC with biosensor variants in HEK293 cells stably expressing GPR41; assay type: cell-based
T3 sequence (O14843 1-346): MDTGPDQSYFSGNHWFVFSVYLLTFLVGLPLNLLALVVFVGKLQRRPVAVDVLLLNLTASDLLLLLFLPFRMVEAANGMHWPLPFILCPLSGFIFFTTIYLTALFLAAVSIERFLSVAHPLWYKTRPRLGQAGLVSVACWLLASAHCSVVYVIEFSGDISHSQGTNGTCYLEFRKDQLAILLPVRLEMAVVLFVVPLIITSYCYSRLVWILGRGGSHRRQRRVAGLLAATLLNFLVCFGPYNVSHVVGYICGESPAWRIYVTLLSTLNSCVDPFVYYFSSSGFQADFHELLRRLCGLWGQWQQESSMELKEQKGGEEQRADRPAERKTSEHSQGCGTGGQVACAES
Outline: (§2)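 GPR41-stable HEK293 cells were transiently transfected with a cAMP biosensor variant, then after 24 h equilibrated 2 h at room temperature with 5 mM EF-luc in CO2-independent medium with 10% FBS. Baseline luminescence was read, a sodium propionate concentration series added, and luminescence read after 30 min. EC50 and fold response were derived, with or without FSK.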

GPR41 [5] = assay: as above; assay type: cell-based; details: ratio of RLU of FSK treated well to untreated well
Outline: as §2

RRFS: Photinus pyralis luciferase with valine 217 mutated to arginine to generate the site RRFS (Sala-Newby et al.)
decrease of activity when phosphorylated [1]: up to 80%

LRRASLG
reduction of activity on addition of kinase catalytic subunit [2]: 30%

B1: L9: cAMP biosensor, RIIβB E284A and V316I, linker GSIAGCGDAGEG; SEQ ID NO:104, 105 (protein)
chain: MPGAVGKVVPFFEAKVVDLDTGKTLGVNQRGELCVRGPMIMSGYVNNPEATNALIDKDGWLHSGDIAYWDEDEHFFIVDRLKSLIKYKGYQVAPAELESILLQHPNIFDAGVAGLPDDDAGELPAAVVVLEHGKTMTEKEIVDYVASQVTTAKKLRGGVVFVDEVPKGLTGKLDARKIREILIKAKKGSIAGCGDAGEGMYESFIESLPFLKSLEFSARLKVVDVIGTKVYNDGEQIIAQGDSADSFFIIESGEVKITMKRKGKSEVEENGAVEIARCSRGQYFGELALVTNKPRAASAHAIGTVKCLAMDVQAFERLLGPCMEIMKRNIATYEEQLVALFGTNMDIVAKNIKKGPAPFYPLEDGTAGEQLHKAMKRYALVPGTIAFTDAHIEVDITYAEYFEMSVRLAEAMKRYGLNTNHRIVVCSENSLQFFMPVLGALFIGVAVAPANDIYNERELLNSMGISQPTVVFVSKKGLQKILNVQKKLPIIQKIIIMDSKTDYQGFQSMYTFVTSHLPPGFNEYDFVPESFDRDKTIALIMNSSGSTGLPKGVALPHRTACVRFSHARDPIFGNQIIPDTAILSVVPFHHGFGMFTTLGYLICGFRVVLMYRFEEELFLRSLQDYKIQSALLVPTLFSFFAKSTLIDKYDLSNLHEIASGGAPLSKEVGEAVAKRFHLPGIRQGYGLTETTSAILITPEGV
fold response to isoproterenol induction of the Gs pathway [3]: improved fold response
fold response for the Gi pathway (dopamine D2 receptor): improved fold response
Fold Response Na proprionate + FSK(1 μM) (GPR41 [4]; with FSK 1 μM): 2.60 fold
Fold Response Na proprionate (GPR41 [4]; without FSK, ratio of induced to uninduced signal): 2.73 fold
Fold Signal Change (GPR41 [5]): 40.9 fold
